B1: Full-length human TR6 (without Fc) (receptor)
chain: VAETPTYPWRDAETGERLVCAQCPPGTFVQRPCRRDSPTTCGPCPPRHYTQFWNYLERCRYCNVLCGEREEEARACHATHNRACRCRTGFFAHAGFCLEHASCPPGAGVIAPGTPSQNTQCQPCPPGTFSASSSSSEQCQPHRNCTALGLALNVPGSSSHDTLCTSCTGFPLSTRVPGAEECERAVIDFVAFQDISIKRLQRLLQALEAPEGWGPTPRAGRAALQLKLRRRLTELLGAQDGALLVRLLQALRVARMPGLERSVRERFLPVH
notes: also called TR6-non-Fc; TR6 non-Fc

Columns and labels:
[1] = biological target: T1, Fas receptor on Jurkat or HT-29 cells (human, UniProt P25445 26-335); assay: cell-based or functional assay
T1 sequence (looked up): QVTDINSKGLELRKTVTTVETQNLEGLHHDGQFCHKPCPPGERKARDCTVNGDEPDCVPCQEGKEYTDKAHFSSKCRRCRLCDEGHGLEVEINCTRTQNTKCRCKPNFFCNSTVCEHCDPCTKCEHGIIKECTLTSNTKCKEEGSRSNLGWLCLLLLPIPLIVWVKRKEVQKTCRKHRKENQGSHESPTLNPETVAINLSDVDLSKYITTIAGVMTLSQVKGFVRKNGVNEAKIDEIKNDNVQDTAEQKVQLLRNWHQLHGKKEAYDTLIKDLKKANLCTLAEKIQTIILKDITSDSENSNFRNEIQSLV

[2] = biological target: T2, full length TNF-gamma-beta on the cell surface of transfected cells (human, UniProt O95150 1-251); assay: flow cytometry competition; competitor DR3-Fc
T2 construct: whole, on cells; also called TNF-gamma-beta expressing cells
T2 sequence (looked up): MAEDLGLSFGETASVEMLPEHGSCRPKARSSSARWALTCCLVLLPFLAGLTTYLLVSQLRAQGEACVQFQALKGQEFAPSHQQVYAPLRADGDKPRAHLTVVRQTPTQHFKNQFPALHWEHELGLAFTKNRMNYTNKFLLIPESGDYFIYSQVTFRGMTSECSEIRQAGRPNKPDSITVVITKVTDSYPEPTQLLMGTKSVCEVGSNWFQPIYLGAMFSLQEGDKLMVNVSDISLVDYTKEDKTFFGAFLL
Experimental: (§1) One million cells, in 0.1 ml of FACS buffer (PBS, 0.1% BSA, 0.1% NaN₃), were incubated with 0.1-1 microgram of protein or antibody at RT for 15 min. The cells were washed with 3 ml of FACS buffer, reacted with biotinylated primary antibody, and stained with PE-conjugated secondary antibody at RT for 15 min. Cells were then washed again, resuspended in 0.5 microgram/ml of propidium iodide, and live cells were gated and analyzed on a FACScan using the CellQuest software (BD Biosciences).

[3] = biological target: T3, FLAG-tagged soluble TNF-gamma-beta (aa 72-251) (human, UniProt O95150 72-251); assay: flow cytometry on transiently transfected cells
T3 construct: also called FLAG-TNF-gamma-beta; FLAG-TL1β
T3 sequence: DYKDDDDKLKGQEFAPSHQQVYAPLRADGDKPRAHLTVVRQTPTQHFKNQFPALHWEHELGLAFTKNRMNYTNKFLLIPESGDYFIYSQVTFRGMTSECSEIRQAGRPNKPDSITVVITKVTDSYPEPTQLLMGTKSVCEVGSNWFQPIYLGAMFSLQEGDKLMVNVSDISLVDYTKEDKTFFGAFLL
Experimental: as §1

[4] = biological target: T2, full length TNF-gamma-beta on the cell …; assay: flow cytometry, receptor-Fc on HEK293F cells expressing full length TNF-gamma-beta
Experimental: as §1

[5] = biological target: B1; assay: BIAcore, FasL-Flag soluble
[6] = biological target: T4, TNFR6 alpha-Fc (full length TNFR-6 alpha, amino acids 1-300 of SEQ ID NO:2, fused to an Fc domain) (human, UniProt O95407 30-300); assay: BIAcore, TR6-Fc immobilized, trimerized FLAG-FasL soluble
T4 construct: Cloned as aa 1-300; disulfide-linked dimer; also called TR6-Fc; TNFR6-Fc; not shown: Fc domain of human IgG1
T4 sequence: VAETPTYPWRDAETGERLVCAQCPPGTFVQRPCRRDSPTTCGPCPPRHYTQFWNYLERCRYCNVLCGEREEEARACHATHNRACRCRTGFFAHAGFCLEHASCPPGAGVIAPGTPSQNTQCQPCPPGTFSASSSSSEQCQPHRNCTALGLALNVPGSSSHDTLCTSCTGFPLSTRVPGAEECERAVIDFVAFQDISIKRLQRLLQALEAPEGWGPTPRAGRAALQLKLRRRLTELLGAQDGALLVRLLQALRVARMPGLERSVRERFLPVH

For “sFas ligand (Alexis Corporation) with a FLAG epitope tag at its N-terminus (from UniProt P48023 103-281)”, the % Cells undergoing apoptosis (annexin/propidium iodide FACS, Jurkat cells), FasL (20 ng) alone (% cells undergoing apoptosis) [1] was 8.87 and the Jurkat cell viability (ALOMAR blue, OD 570 nm-630 nm) (% decrease in cell viability) [1] was 50.

With B1 the “molar ratio of TR6 to DR3-Fc at which no DR3-Fc binding was detected” value [2] was 2 molar ratio (2:1).

B2: BCMA on transiently transfected cells (receptor, UniProt Q02223 1-184, looked up)
chain: MLQMAGQCSQNEYFDSLLHACIPCQLRCSSNTPPLTCQRYCNASVTNSVKGTNAILWTCLGLSLIISLAVFVLMFLLRKINSEPLKDEFKNTGSGLLGMANIDLEKSRTGDEIILPRGLEYTVEECTCEDCIKSKPKVDSDHCFPLPAMEEGATILVTTKTNDYCKSLPAALSATEIEKSISAR
notes: whole, on cells
B2: no binding [3].

B3: TR2-Fc (extracellular domain of TR2, aa 1-192, fused to the Fc domain of human IgG1) (Fc fusion)
chain: LPSCKEDEYPVGSECCPKCSPGYRVKEACGELTGTVCEPCPPGTYIAHLNGLSKCLQCQMCDPAMGLRASRNCSRTENAVCGCSPGHFCIVQDGDHCAACRAYATSSPGQRVQKGGTESQDTLCQNCPPGTFSPNGTLEECQHQTKCSWLVTKA
notes: The range is as cloned; also called HveA-Fc; HveA; not shown: Fc domain of human IgG1
B3: no binding [4].

B4: Soluble human FLAG-FasL (synthesized at HGS) (ligand)
chain: DYKDDDDKQIGHPSPPPEKKELRKVAHLTGKSNSRSMPLEWEDTYGIVLLSGVKYKKGGLVINETGLYFVYSKVYFRGQSCNNLPLSHKVYMRNSKYPQDLVMMEGKMMSYCTTGQMWARSSYLGAVFNLTSADHLYVNVSELSLVNFEESQTFFGLYKL
notes: Called trimerized in the BIAcore experiment; cross-linked with anti-FLAG antibody in the cell assays; also called FasL-Flag; trimerized FLAG-FasL
B4 was tested, and the “Jurkat apoptosis (annexin staining, FACS)” value [1] was about 7 fold, the Kd [5] was 17 nM and the Kd [6] was 4.6 nM.

— US20090226456A1 (published 2009)
